These results are taken from publication PMC8556265.

The assay addresses Lsi1_(cryst) (rice Low silicon rice 1, ΔN44/ΔC24/K50R/C66A/T93V/C139A/K232R/T253V/K264R) (rice (Oryza sativa cv. Nipponbare)). The assay can be described thus: crystal structure; X-ray, 1.8 Å; sitting drop vapour diffusion at 7 °C, 39-50% PEG 400, 100 mM Gly-NaOH pH 9.5, 1% OG, 0.1% CHS; space group P2_(1), two tetramers built.

“Lsi1_(cryst) (rice Low silicon rice 1, ΔN44/ΔC24/K50R/C66A/T93V/C139A/K232R/T253V/K264R) (domain or fragment)” had a stoichiometry N of 4.
